# Source: patent US20250145694A1 (GUANGDONG FEIPENG BIOLOGICAL, published 2025)
# Experiments:
# [1] = target: T1, CTNI quality control recombinant antigen (human, UniProt P19429 1-210, limits assumed); experiment: indirect ELISA, cTnI coated 1 ug/ml, antibody 4.115 ng/ml
# T1 construct: Recombinant antigen produced by the applicant; also called CTNI quality control recombinant protein (antigen produced by the company); cardiac troponin I
# Experimental: (§1) CTNI quality control recombinant antigen was diluted to 1 μg/ml with a coating solution and coated a microplate, 100 μL per well, overnight at 4° C.; on the next day, the microplate was washed with a washing solution twice and patted dry; a blocking solution (20% of BSA+80% of PBS) was added, 120 μL per well, 37° C., 1 h, patted dry; the diluted cTnI monoclonal antibodies were added, 100 μL/well, 37° C., 30 min; the microplate was washed with a washing solution 5 times, patted dry; goat anti-mouse IgG-HRP, 100 μL per well, 37° C., 30 min; the microplate was washed with a washing solution 5 times, patted dry; a color-developing solution A (50 μL/well) was added, a color-developing solution B (50 μL/well) was added, 10 min; a stop solution was added, 50 μL/well; OD values were read on microplate reader at 450 nm (reference, 630 nm).
# [2] = target: T1, CTNI quality control recombinant antigen; experiment: indirect ELISA, cTnI coated 1 ug/ml, antibody 1.372 ng/ml
# Experimental: as §1
# [3] = target: T1, CTNI quality control recombinant antigen; experiment: indirect ELISA, cTnI coated 1 ug/ml, antibody 12.346 ng/ml
# Experimental: as §1
# [4] = target: T1, CTNI quality control recombinant antigen; experiment: indirect ELISA, cTnI coated 1 ug/ml, antibody 0.051 ng/ml
# Experimental: as §1
# [5] = target: T1, CTNI quality control recombinant antigen; experiment: BLI, antibody on AMC sensor, cTnI in solution
# Experimental: With an AMC sensor, the purified antibody was diluted to 10 μg/ml with PBST, and CTNI quality control recombinant protein (antigen produced by the company) was gradient diluted with PBST to 769.2 nmol/ml, 384.6 nmol/ml, 192.3 nmol/ml, 96.2 nmol/ml, 48.1 nmol/ml, 24 nmol/ml, 12 nmol/ml, and 0 nmol/ml.
# [6] = target: T1, CTNI quality control recombinant antigen; experiment: indirect ELISA, cTnI coated 1 ug/ml, antibody 0.152 ng/ml
# Experimental: as §1
# [7] = target: T1, CTNI quality control recombinant antigen; experiment: indirect ELISA, cTnI coated 1 ug/ml, antibody 0.457 ng/ml
# Experimental: as §1
# [8] = target: T1, CTNI quality control recombinant antigen; experiment: indirect ELISA, cTnI coated 1 ug/ml, antibody 0 ng/ml (blank)
# Experimental: as §1
# T1 sequence (P19429 whole entry): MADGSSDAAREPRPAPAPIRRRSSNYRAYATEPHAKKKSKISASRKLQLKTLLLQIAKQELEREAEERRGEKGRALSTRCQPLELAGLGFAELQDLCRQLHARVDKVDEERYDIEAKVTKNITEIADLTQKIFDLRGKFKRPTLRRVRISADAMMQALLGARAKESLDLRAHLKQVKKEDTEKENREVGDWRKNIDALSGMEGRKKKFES
OD450 (reference 630 nm) [1] [OD],OD450 (reference 630 nm) [2] [OD],OD450 (reference 630 nm) [3] [OD],OD450 (reference 630 nm) [4] [OD],Kd [5] [nM],koff [5] [s⁻¹],kon [5] [M⁻¹ s⁻¹],OD450 (reference 630 nm) [6] [OD],OD450 (reference 630 nm) [7] [OD],OD450 (reference 630 nm) [8] [OD],Binder
0.435,0.194,1.18,0.04,21.6,0.000169,7830,0.053,0.086,0.031,"Anti-cTnI 8C4 recombinant antibody (WT) (antibody, mouse IgG1, kappa, Mouse antibody expressed in CHO cells; also called CTNI 8C4 antibody) heavy: EVQMVESGGGLLKPGGSLKLSCAASGFTYSNYAMSWVRQTPEKRLEWVATISTGGSYSYYPDSVKGRFTISRDNAKNTLYLQMLSLRSEDTAMYYCARKDNYYGSTFMDYWGQGSSVTVSSAKTTPPSVYPLAPGSAAQTNSMVTLGCLVKGYFPEPVTVTWNSGSLSSGVHTFPAVLQSDLYTLSSSVTVPSSTWPSQTVTCNVAHPASSTKVDKKIVPRDCGCKPCICTVPEVSSVFIFPPKPKDVLTITLTPKVTCVVVDISKDDPEVQFSWFVDDVEVHTAQTKPREEQFNSTFRSVSELPIMHQDWLNGKEFKCRVNSAAFPAPIEKTISKTKGRPKAPQVYTIPPPKEQMAKDKVSLTCMITNFFPEDITVEWQWNGQPAENYKNTQPIMDTDGSYFVYSKLNVQKSNWEAGNTFTCSVLHEGLHNHHTEKSLSHSPG light: DIQMTQTSSSLSASLGDRVTISCRASQDITQYLNWYQQKPDGTIKLLIYYSSRIHSGVSSRFSGSGSGTDYSLTISNLEQEDIATYFCQQGNTIPLTFDTGTKLELKRADAAPTVSIFPPSSEQLTSGGASVVCFLNNFYPKDINVKWKIDGSERQNGVLNSWTDQDSKDSTYSMSSTLTLTKDEYERHNSYTCEATHKTSTSPIVKSFNRNEC"
1.6,0.785,2.02,0.088,7.04,0.000583,82800,0.129,0.307,0.039,Mutation 1 (antibody) heavy: EVQMVESGGGLLKPGGSLKLSCAASGFTYSNYAMSWVRQTPEKRLEWVATISSGGSYSYYPDSVKGRFTISRDNAKNTLYLQMLSLRSEDTAMYYCARRDNYYGSTFMDYWGQGSSVTVSSAKTTPPSVYPLAPGSAAQTNSMVTLGCLVKGYFPEPVTVTWNSGSLSSGVHTFPAVLQSDLYTLSSSVTVPSSTWPSQTVTCNVAHPASSTKVDKKIVPRDCGCKPCICTVPEVSSVFIFPPKPKDVLTITLTPKVTCVVVDISKDDPEVQFSWFVDDVEVHTAQTKPREEQFNSTFRSVSELPIMHQDWLNGKEFKCRVNSAAFPAPIEKTISKTKGRPKAPQVYTIPPPKEQMAKDKVSLTCMITNFFPEDITVEWQWNGQPAENYKNTQPIMDTDGSYFVYSKLNVQKSNWEAGNTFTCSVLHEGLHNHHTEKSLSHSPG light: DIQMTQTSSSLSASLGDRVTISCRASQDITNYLNWYQQKPDGTIKLLIYYTSRIHSGVSSRFSGSGSGTDYSLTISNLEQEDIATYFCQQGNTIPLTFDTGTKLELKRADAAPTVSIFPPSSEQLTSGGASVVCFLNNFYPKDINVKWKIDGSERQNGVLNSWTDQDSKDSTYSMSSTLTLTKDEYERHNSYTCEATHKTSTSPIVKSFNRNEC
